Assay results published in the RNAGym collection of RNA variant scans (doi:10.1093/nar/gkz1192).

B1: CPEB3 Ribozyme (parent)
chain: UAACAGGGGGCCACAGCAGAAGCGUUCACGUCGCAGCCCCUGUCAGAUUCUGGUGAAUCUGCGAAUUCUGCUGUAUAUCUC

Variants of: B1
Assay: self-cleavage, relative activity (ratio to wild type); higher = more cleavage; in vitro, sequencing
Outline: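 For each CPEB3 ribozyme variant, relative activity is its cleaved/total read fraction divided by the unmutated ribozyme's. Barcoded error-prone PCR libraries were transcribed by T7 RNA polymerase (5 hours, 37°C) and held in DNase I for 15 min before an EDTA stop, with cleavage occurring throughout. Template-switching reverse transcription and Illumina sequencing were used to read the RNAs. A 5-read minimum applied, and results are the mean of three batches.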

Going from U58A A75U to U58A A77C, the self-cleavage rises from 0.29 to 0.33.

First: U58A A77G
Second: U58A A77U
The self-cleavage of the first is lower: 0.38 for the first, 0.43 for the second.

Compared with U58A C59A, U58A C62U is lower in self-cleavage: 0.25 for the first, 0.23 for the second.

Compared with U58A C68U, U58A G63A is higher in self-cleavage: 0.23 for the first, 0.59 for the second.

First: U58A G70C
Second: U58A G73A
The self-cleavage of the first is lower: 0.14 for the first, 1.1 for the second.

First: U58A U60A
Second: U58A U60C
The self-cleavage of the first is lower: 0.17 for the first, 0.23 for the second.

Going from U58A U60G to U58A U66C, the self-cleavage rises from 0.17 to 0.29.

First: U58A U67A
Second: U58A U67C
The self-cleavage of the first is higher: 0.32 for the first, 0.31 for the second.

First: U58A U69A
Second: U58A U69C
The self-cleavage of the first is lower: 0.23 for the first, 0.28 for the second.

Compared with U58A U72A, U58A U72C is higher in self-cleavage: 0.38 for the first, 0.43 for the second.

Compared with U58A U72G, U58A U74A is higher in self-cleavage: 0.42 for the first, 0.6 for the second.

Going from U58A U74C to U58A U76A, the self-cleavage falls from 0.67 to 0.49.

Going from U58A U78C to U58A U80A, the self-cleavage rises from 0.42 to 0.5.

Going from U58A U80C to U58C, the self-cleavage rises from 0.46 to 0.56.

First: U58C A64G
Second: U58C A64U
The self-cleavage of the first is higher: 0.36 for the first, 0.33 for the second.

Compared with U58C A65C, U58C A65G is higher in self-cleavage: 0.14 for the first, 0.27 for the second.

First: U58C A65U
Second: U58C A75G
The self-cleavage of the first is lower: 0.21 for the first, 0.46 for the second.

Going from U58C A75U to U58C A77C, the self-cleavage falls from 0.7 to 0.26.

Compared with U58C A77G, U58C A77U is higher in self-cleavage: 0.56 for the first, 0.65 for the second.

Compared with U58C C59U, U58C C62A is higher in self-cleavage: 0.21 for the first, 0.36 for the second.

First: U58C C62G
Second: U58C C62U
The self-cleavage of the first is higher: 0.27 for the first, 0.22 for the second.

Going from U58C C68A to U58C C71A, the self-cleavage rises from 0.2 to 0.37.

First: U58C C71U
Second: U58C C79U
The self-cleavage of the first is lower: 0.41 for the first, 0.6 for the second.

First: U58C C81A
Second: U58C C81G
The self-cleavage of the first is lower: 0.75 for the first, 0.82 for the second.

First: U58C C81U
Second: U58C G61U
The self-cleavage of the first is higher: 0.68 for the first, 0.21 for the second.

Going from U58C G63A to U58C G63C, the self-cleavage rises from 0.51 to 0.54.

First: U58C G63U
Second: U58C G70A
The self-cleavage of the first is higher: 0.91 for the first, 0.37 for the second.

Going from U58C G73A to U58C U60A, the self-cleavage falls from 1.24 to 0.26.

First: U58C U60C
Second: U58C U60G
The self-cleavage of the first is higher: 0.3 for the first, 0.24 for the second.

First: U58C U66C
Second: U58C U66G
The self-cleavage of the first is higher: 0.28 for the first, 0.23 for the second.

First: U58C U67A
Second: U58C U67C
The self-cleavage of the first is lower: 0.28 for the first, 0.29 for the second.

Going from U58C U69A to U58C U69C, the self-cleavage falls from 0.3 to 0.27.

First: U58C U69G
Second: U58C U72A
The self-cleavage of the first is lower: 0.15 for the first, 0.39 for the second.

Going from U58C U72C to U58C U72G, the self-cleavage falls from 0.59 to 0.55.

Going from U58C U74C to U58C U76A, the self-cleavage falls from 0.87 to 0.68.

First: U58C U76C
Second: U58C U76G
The self-cleavage of the first is lower: 0.67 for the first, 0.69 for the second.

U58C U78A and U58C U78C are the same in self-cleavage: 0.47 for the first, 0.47 for the second.

First: U58C U78G
Second: U58C U80A
The self-cleavage of the first is lower: 0.44 for the first, 0.91 for the second.

Going from U58C U80C to U58C U80G, the self-cleavage rises from 0.57 to 0.67.

Going from U58G to U58G A64U, the self-cleavage falls from 0.34 to 0.17.

First: U58G A65G
Second: U58G G63A
The self-cleavage of the first is lower: 0.1 for the first, 0.45 for the second.

Variant U58G G70A has a self-cleavage of 0.19.
